Results published in article PMC5709234 (Journal of the American Society for Mass Spectrometry, 2017).
Several values for one entry are separate records, joined by “and”; a condition that tells them apart may be missing. Identical values can stand only once. Like-named read-outs stand apart in the source and are kept apart here.

B1: Pyruvate kinase type III (Oryctolagus caniculus) (enzyme)
chain: not shown
B2: Enolase 1 (S. cerevisiae) (enzyme, UniProt P00924 2-437, looked up)
chain: AVSKVYARSVYDSRGNPTVEVELTTEKGVFRSIVPSGASTGVHEALEMRDGDKSKWMGKGVLHAVKNVNDVIAPAFVKANIDVKDQKAVDDFLISLDGTANKSKLGANAILGVSLAASRAAAAEKNVPLYKHLADLSKSKTSPYVLPVPFLNVLNGGSHAGGALALQEFMIAPTGAKTFAEALRIGSEVYHNLKSLTKKRYGASAGNVGDEGGVAPNIQTAEEALDLIVDAIKAAGHDGKVKIGLDCASSEFFKDGKYDLDFKNPNSDKSKWLTGPQLADLYHSLMKRYPIVSIEDPFAEDDWEAWSHFFKTAGIQIVADDLTVTNPKRIATAIEKKAADALLLKVNQIGTLSESIKAAQDSFAAGWGVMVSHRSGETEDTFIADLVVGLRTGQIKTGAPARSERLAKLNQLLRIEEELGDNAVFAGENFHHGDKL

What was measured:
[1] = target: the molecule itself; test: native MS
[2] = target: the molecule itself; test: native MS; remark: listed apart in the source

Protein | stoichiometry N [1] | stoichiometry N [2]
B1 | 2 and 4 | –
B2 | – | 2
